Measurements: IntAct's records for PubMed 20489725
Each block holds one substance with its values, some of them ahead of it.

How the values were obtained:
[1] = biological target: obscn_human OBSCN (UniProt Q5VST9)
[2] = biological target: obsl1_human OBSL1 (UniProt O75147)
[3] = biological target: obscn_human OBSCN (UniProt Q5VST9); remark: listed apart in the source
[4] = biological target: obsl1_human OBSL1 (UniProt O75147); remark: listed apart in the source
[5] = biological target: obsl1_human OBSL1 (UniProt O75147); remark: listed apart in the source
[6] = biological target: obscn_human OBSCN (UniProt Q5VST9); remark: listed apart in the source
[7] = biological target: obsl1_human OBSL1 (UniProt O75147); remark: listed apart in the source
[8] = biological target: obscn_human OBSCN (UniProt Q5VST9); remark: listed apart in the source

Chain of obsl1_human OBSL1 (O75147 whole entry): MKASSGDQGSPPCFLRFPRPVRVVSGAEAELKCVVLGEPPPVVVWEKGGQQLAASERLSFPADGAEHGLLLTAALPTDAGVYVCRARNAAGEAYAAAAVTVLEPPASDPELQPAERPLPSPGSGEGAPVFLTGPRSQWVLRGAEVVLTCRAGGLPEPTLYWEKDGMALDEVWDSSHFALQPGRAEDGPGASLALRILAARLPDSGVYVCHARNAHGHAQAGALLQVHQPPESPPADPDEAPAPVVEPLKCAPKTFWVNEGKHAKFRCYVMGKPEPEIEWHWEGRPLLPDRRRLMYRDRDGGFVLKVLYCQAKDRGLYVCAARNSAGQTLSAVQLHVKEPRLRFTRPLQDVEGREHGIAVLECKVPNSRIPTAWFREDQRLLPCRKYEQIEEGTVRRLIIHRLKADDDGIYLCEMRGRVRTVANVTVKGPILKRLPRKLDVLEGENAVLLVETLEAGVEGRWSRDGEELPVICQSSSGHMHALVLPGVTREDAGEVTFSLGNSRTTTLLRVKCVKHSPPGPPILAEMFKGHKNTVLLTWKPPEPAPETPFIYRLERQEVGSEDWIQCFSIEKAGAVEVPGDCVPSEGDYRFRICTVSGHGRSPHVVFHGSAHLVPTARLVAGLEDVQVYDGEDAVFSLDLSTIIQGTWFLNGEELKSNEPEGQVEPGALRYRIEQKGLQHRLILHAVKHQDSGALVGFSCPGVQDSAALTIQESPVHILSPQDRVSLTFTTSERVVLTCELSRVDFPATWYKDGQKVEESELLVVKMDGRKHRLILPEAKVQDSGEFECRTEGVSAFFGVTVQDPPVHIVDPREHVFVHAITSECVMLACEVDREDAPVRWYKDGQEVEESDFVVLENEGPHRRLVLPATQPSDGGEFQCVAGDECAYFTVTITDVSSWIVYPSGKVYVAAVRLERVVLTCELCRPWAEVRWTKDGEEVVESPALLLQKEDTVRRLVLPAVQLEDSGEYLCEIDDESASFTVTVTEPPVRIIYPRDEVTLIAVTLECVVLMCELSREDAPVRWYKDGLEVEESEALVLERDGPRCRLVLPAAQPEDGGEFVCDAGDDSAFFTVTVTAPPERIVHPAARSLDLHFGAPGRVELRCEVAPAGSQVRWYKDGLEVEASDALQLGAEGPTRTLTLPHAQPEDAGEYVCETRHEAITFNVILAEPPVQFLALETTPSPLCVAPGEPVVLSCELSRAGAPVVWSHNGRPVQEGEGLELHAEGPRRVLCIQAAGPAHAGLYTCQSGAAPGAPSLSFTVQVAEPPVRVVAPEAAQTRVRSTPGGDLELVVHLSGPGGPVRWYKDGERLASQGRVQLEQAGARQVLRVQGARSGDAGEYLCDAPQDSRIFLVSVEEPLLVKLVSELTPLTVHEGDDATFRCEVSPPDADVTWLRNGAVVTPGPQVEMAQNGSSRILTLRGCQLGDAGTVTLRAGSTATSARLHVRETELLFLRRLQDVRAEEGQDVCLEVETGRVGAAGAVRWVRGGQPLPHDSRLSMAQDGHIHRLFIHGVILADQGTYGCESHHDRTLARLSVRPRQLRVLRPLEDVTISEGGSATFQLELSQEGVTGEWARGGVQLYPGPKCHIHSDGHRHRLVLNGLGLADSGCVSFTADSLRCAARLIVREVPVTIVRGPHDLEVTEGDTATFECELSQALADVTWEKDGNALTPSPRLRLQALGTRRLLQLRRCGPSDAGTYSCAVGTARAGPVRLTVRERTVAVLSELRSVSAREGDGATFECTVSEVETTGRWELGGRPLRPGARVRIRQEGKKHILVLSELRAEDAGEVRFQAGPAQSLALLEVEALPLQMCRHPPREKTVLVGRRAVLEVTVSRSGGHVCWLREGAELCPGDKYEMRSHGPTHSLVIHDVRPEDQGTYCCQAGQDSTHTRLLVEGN

effect of a mutation on the interaction [1]: decreasing interaction
Substance: Titin (Homo sapiens), Q8WZ42 D34311R

effect of a mutation on the interaction [2]: increasing interaction
effect of a mutation on the interaction [3]: decreasing interaction
Substance: Titin (Homo sapiens), Q8WZ42 R34348E

effect of a mutation on the interaction [4]: decreasing interaction
Substance: Titin (Homo sapiens), Q8WZ42 D34311S

effect of a mutation on the interaction [5]: decreasing interaction
effect of a mutation on the interaction [6]: decreasing interaction
Substance: Titin (Homo sapiens), Q8WZ42 I34306N

effect of a mutation on the interaction [7]: decreasing interaction
effect of a mutation on the interaction [8]: decreasing interaction
Substance: Titin (Homo sapiens), Q8WZ42 H34305P
